Laboratory results from patent US20030064396A1 (published 2003).

Tests used:
[1] = target: human AR fragment coding for the amino acids 325 to 919 (AR2) (human) (UniProt P10275); assay: cell-based or functional assay
[2] = target: T1, human androgen receptor, complete (expression vector pSG5AR) (human, UniProt P10275 1-920, 35S-methionine-labeled in the pull-down of Example 4 (in vitro translated, T7 TNT reticulocyte lysate)); assay: GST pull-down of 35S-labelled AR; binding ratio against GST-empty, corrected for the protein amounts by Western blot, Exp. 3
T1 construct: mature; also called complete AR; 35S-methionine-labeled androgen receptor
T1 sequence (looked up): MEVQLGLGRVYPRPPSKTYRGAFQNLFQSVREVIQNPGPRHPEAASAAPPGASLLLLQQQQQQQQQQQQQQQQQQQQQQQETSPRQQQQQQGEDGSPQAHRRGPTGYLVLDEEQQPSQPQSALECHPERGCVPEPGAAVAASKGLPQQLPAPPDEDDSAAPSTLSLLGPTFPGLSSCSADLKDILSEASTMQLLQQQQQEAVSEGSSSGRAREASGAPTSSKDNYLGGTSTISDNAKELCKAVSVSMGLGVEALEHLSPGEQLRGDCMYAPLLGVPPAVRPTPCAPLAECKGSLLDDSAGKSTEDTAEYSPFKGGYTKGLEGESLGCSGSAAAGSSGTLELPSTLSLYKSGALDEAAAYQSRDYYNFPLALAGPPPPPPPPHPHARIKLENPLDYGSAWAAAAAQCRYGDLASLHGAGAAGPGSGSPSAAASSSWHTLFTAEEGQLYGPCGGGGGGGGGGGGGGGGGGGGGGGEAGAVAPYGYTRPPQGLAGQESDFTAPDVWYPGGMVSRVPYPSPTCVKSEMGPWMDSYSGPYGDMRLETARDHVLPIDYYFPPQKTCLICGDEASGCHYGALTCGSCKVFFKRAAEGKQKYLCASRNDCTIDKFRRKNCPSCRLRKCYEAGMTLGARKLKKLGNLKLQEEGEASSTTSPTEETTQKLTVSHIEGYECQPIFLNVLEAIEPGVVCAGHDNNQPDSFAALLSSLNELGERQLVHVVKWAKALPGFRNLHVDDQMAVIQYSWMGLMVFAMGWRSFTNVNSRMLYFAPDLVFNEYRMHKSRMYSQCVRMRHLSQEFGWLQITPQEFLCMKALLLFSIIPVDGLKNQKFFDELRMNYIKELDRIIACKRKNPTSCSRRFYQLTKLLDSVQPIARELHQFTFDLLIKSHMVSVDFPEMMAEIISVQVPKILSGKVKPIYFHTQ
Description: (§1) A GST pull-down experiment is characterized by an experimental procedure, which allows binding of an in vitro expressed GST fusion protein to a similar in vitro expressed and radioactively labeled protein, subsequent separation from non-interacting proteins and detection and identification of the bound protein as a measure of the binding.

[3] = target: T1, human androgen receptor, complete …; assay: GST pull-down of 35S-labelled AR; binding ratio against GST-empty, corrected for the protein amounts by Western blot, Exp. 2
Description: as §1

[4] = target: T1, human androgen receptor, complete …; assay: GST pull-down of 35S-labelled AR; binding ratio against GST-empty, corrected for the protein amounts by Western blot, Exp. 1
Description: as §1

[5] = target: T1, human androgen receptor, complete …; assay: GST pull-down of 35S-labelled AR; binding ratio against GST-empty, corrected for the protein amounts by Western blot, Exp. 4
Description: as §1

[6] = target: T1, human androgen receptor, complete …; assay: mammal hybrid test, VP16 fusion, luciferase reporter in PC3 cells

two-hybrid clone with an insert comprising 327 base pairs coding for part of the ORF of KIAA1380 (ARAP3) (from UniProt Q15652 1915-2023)
yeast-2-hybrid screen with and without 10^-6 mol DHT; lacZ-positive clones (β-galactosidase assay) [1]: 40 times

B1: GST-ARAP3: ARAP3 fragment (AS 1735 to 1840 of Seq. ID No. 14) as a GST fusion protein (vector pGEX-KG) (other)
chain: LDAMHTLREKYGIKSHCHCTNKQNLQVGNFPTMNGVSQVLQNVLNHSNKISLCMPESQQQNTPPKSEKNGGSSPESDVGTDNKLTPPESQSPLHWLADLAEQKARE
notes: also called ARAP3 fusion protein; GST-ARAP3 spherical particles; not shown: glutathione S-transferase (GST) tag of the vector pGEX-KG (Pharmacia)
Ratio GST-ARAP3/GST-empty [2]: > 100 Ratio
Ratio GST-ARAP3/GST-empty [3]: 1120 Ratio
Ratio GST-ARAP3/GST-empty [4]: 26.5 Ratio
Ratio GST-ARAP3/GST-empty [5]: > 100 Ratio

B2: ARAP3 fragment (AS 1430-1539 of Seq. ID No. 20) as fusion protein with VP16 (CMX-VP16-ARAP3-III) (other)
chain: DLLDAMHTLREKYGIKSHCHCTNKQNLQVGNFPTMNGVSQVLQNVLNHSNKISLCMPESQQQNTPPKSEKNGGSSPESDVGTDNKLTPPESQSPLHWLADLAEQKAREEK
notes: Expressed in transfected human PC3 cells; also called ID No. 20; not shown: VP16 fusion partner from the vector CMX-VP16
binding result [6]: binds
